These results are taken from paper PMC3168705 (The FEBS journal, 2011).

This experiment addresses McTnI_(29–211), mouse cardiac TnI with the NH2-terminal extension removed (mouse, UniProt P48787 29-211). Put plainly: ELISA.

Sequence of McTnI_(29–211), mouse cardiac TnI with the NH2-terminal extension removed (P48787 29-211): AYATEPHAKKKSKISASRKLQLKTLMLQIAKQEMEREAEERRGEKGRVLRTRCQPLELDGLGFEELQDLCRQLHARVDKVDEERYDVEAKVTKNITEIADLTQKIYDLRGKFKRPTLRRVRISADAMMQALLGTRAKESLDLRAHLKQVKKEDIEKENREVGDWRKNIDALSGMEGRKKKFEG

B1: chicken fast TnC (natural protein)
chain: not shown
Turning to B1, the binding result is on record as “binds”.
